Source: patent US7932067B2, “Detection, isolation and uses of renalase (monoamine oxidase C)” (Yale University, priority 2004, dated 2011)

What was measured:
Sprague Dawley rats = assay: Hemodynamics measurements after bolus intravenous injection of recombinant renalase; assay type: in vivo, rat
Procedure: Sprague Dawley rats (150-250 g) were anesthetized with inactin (100 mg/kg). A catheter (PE-240) was placed in the trachea for airway protection and in the left jugular vein (PE-50) for intravenous infusion of a maintenance fluid solution consisting of normal saline with 6.25% bovine albumin, at a rate of 1.5 ml per 100 g body wt per hour. Core temperature was monitored through a rectal thermometer and body temperature was maintained at 37° C. using a heating pad. Arterial pressure and heart rate were continuously monitored through a PE-50 catheter inserted in the left carotid artery and connected to a pressure transducer (ADInstruments, CO, USA). Hemodynamic recordings were digitized, stored and analyzed using a PowerLab/8SP data acquisition system (ADIntruments). The rats were allowed 1 h to recover after completion of the surgical procedure, and the subsequent 30 minutes served as a control period. The experimental group then received a bolus intravenous injection of 0.5 mg of recombinant renalase in 0.5 ml PBS. The control group was injected with either 0.5 mg BSA or 0.5 mg recombinant glutathione transferase in 0.5 ml of PBS. Blood pressure and heart rate were continuously measured and recorded.
Blood pressure is a function of cardiac output and peripheral vascular resistance, and is regulated by the sympathetic nervous system. Circulating catecholamines control heart rate, myocardial contractility, and the tone of resistance vessels. Since renalase circulates in blood and degrades catecholamines, we examined its in vivo effect on hemodynamic parameters. Within 30 seconds of a single bolus intravenous injection of recombinant renalase, systolic, diastolic and mean arterial pressure decreased by 23.5±1.3, 32.6±2.9 and 28.9±2.7% respectively, (n=4, p<0.001). […] Heart rate remained unchanged initially, and decreased slightly (6.4%) by 60 min, (FIG. 7A, lower panel). In control studies, blood pressure and heart rate were unaffected by either albumin or GST infusion (FIG. 7B). […] Alternatively, renalase could bind to a cognate receptor and modulate myocardial contractility and vascular resistance directly.

nephrectomized rats [1] = assay: Prophylactic model for chronic renal failure (rat remnant kidney model); assay type: in vivo; details: 100 microgram/kg SQ twice per day, 8-9 weeks
Text: (§1) A rat partial (5/6) nephrectomy or rat remnant kidney model can be used as described (Wada, M et al; J Clin Invest 1997 Dec. 15; 100(12):2977-83). Male rats (2-3 months old, weighing about 150-200 g) are subjected to unilateral nephrectomy (either left or right kidney) first. A 2.0 cm skin incision is made in the ventral midline, with its cranial terminus 1.0 cm caudal to the xyphoid process. A 2.0 cm muscle incision is made along the midline. The right kidney is isolated and cleared of surrounding fat and connective tissue to clearly view the renal artery and vein, and ureter as they enter the hilus of the kidney. Care is exercised to minimize disturbance of the adrenal gland. A ligature (3/0 silk) is placed around the renal artery, vein and ureter. These vessels are then cut proximal to the kidney and the kidney is removed, taking care that the adrenal gland is not disturbed. The second step of the surgical procedure involves the removal of the 2/3 of the remaining kidney in 7-10 days after the first step. Plasma creatinine (Cr) and BUN levels rise dramatically due to the loss of renal mass and function. Over the next several weeks, plasma Cr and BUN levels of surviving animals decline somewhat toward normal values but remain elevated. Renal function then appears to remain relatively constant or stable for a period of variable duration. […]

nephrectomized rats [2] = assay: Intervention model for chronic renal failure (rat remnant kidney model); assay type: in vivo; details: nephrectomized rats, 10, 100, 500 microgram/kg SQ twice per day, 4-8 weeks
Text: as §1

[3] = Amine oxidase assay of renalase (Amplex Red Monoamine Oxidase Assay Kit) with amines as substrates; assay type: biochemical, human; details: GST-renalase fusion protein, battery of amines as substrates, 2 mM
Procedure: Enzyme assay of renalase was carried out using an Amplex Red Monoamine Oxidase Assay Kit (Molecular Probes, Cat # A-12214) that provides one-step fluorometric method for the continuous measurement of amine oxidase activity using a fluorescence microplate reader. The assay is based on the detection of H2O2 in a horseradish peroxidase-coupled reaction using 10-acetyl-3,7-dihydroxy-phenoxazine (Amplex Red reagent), a highly sensitive and stable probe for H2O2. Experiments were carried out according to manufacturer's instruction with a final substrate concentration of 2 mM.
Therefore, we tested whether it had oxidase activity using a battery of amines as substrates. Renalase fusion protein in E. Coli was generated by cloning renalase cDNA into a Glutathione-S-Transferase (GST)-1-containing pGEX expression vector using the GST Gene Fusion System. […] Its enzymatic activity was unaffected by inhibitors of the FAD-containing amine oxidases, MAO-A and MAO-B (FIG. 4b).
We subsequently tested whether renalase has an oxidase activity using a battery of amines as substrates. […] Thus, it can be concluded that renalase is novel protein that metabolizes dopamine, norepinephrine and epinephrine.

[4] = rat, nadir between 60-90 minutes after injection, n=4, p<0.01
[5] = rat, within 30 seconds of single bolus iv injection, 0.5 mg, n=4, p<0.001

B1: Renalase: novel FAD-dependent monoamine oxidase secreted by the kidney that metabolizes dopamine, norepinephrine and epinephrine; SEQ ID NO: 2 (protein, listed as Homo sapiens)
chain: MAQVLIVGAGMTGSLCAALLRRQTSGPLYLAVWDKADDSGGRMTTACSPHNPQCTADLGAQYITCTPHYAKKHQRFYDELLAYGVLRPLSSPIEGMVMKEGDCNFVAPQGISSIIKHYLKESGAEVYFRHRVTQINLRDDKWEVSKQTGSPEQFDLIVLTMPVPEILQLQGDITTLISECQRQQLEAVSYSSRYALGLFYEAGTKIDVPWAGQYITSNPCIRFVSIDNKKRNIESSEIGPSLVIHTTVPFGVTYLEHSIEDVQELVFQQLENILPGLPQPIATKCQKWRHSQVTNAAANCPGQMTLHHKPFLACGGDGFTQSNFDGCITSALCVLEALKNYI
With B1 the Arterial elastance (Sprague Dawley rats; Table 1, renalase vs control 0.94 ± 0.09, n=3, NS) was 0.8 ± 0.04 mmHg/uL, the End diastolic pressure (Sprague Dawley rats; Table 1, renalase vs control 11.3 ± 1.8, n=5, NS) was 9.3 ± 1.5 mmHg and the “Cardiac Output” value (Sprague Dawley rats; Table 1, renalase vs control 45.8 ± 2.8, n=3, p<0.03) was 33.2 ± 1.5 mL/min. For the same molecule, the “Mean Arterial Pressure” value (Sprague Dawley rats; Table 1, renalase vs control 106.4 ± 4.7, n=8, p<0.0001) was 65.3 ± 3.5 mmHg, the End systolic pressure (Sprague Dawley rats; Table 1, renalase vs control 127.7 ± 8.1, n=5, p<0.004) was 92.7 ± 2.7 mmHg and the Heart rate (Sprague Dawley rats; Table 1, renalase vs control 342 ± 6, n=5, p<0.004) was 304 ± 9 beats/min. For the same molecule, the Systemic vascular resistance (Sprague Dawley rats; Table 1, renalase vs control 2323 ± 196, n=3, NS) was 1966 ± 183 mmHg/L/min, the dP/dt (Sprague Dawley rats; Table 1, renalase vs control 8604 ± 728, n=5, p<0.001) was 5235 ± 442 mmHg/sec and the “decrease in heart rate” value (Sprague Dawley rats; rat, by 60 min after injection) was 6.4%. For the same molecule, the “heart rate, initial response” value (Sprague Dawley rats; rat, initially after bolus iv injection) was “unchanged”, the “diastolic arterial pressure lower than baseline at nadir” value (Sprague Dawley rats; [4]) was 14.3±1.2% and the “mean arterial pressure lower than baseline at nadir” value (Sprague Dawley rats; [4]) was 14.8±1.1%. For the same molecule, the “systolic arterial pressure lower than baseline at nadir” value (Sprague Dawley rats; [4]) was 16.5±1.5%, the “time to recovery of blood pressure after initial fall” value (Sprague Dawley rats; rat, single bolus iv injection) was at most 2 min and the “decrease in diastolic arterial pressure” value (Sprague Dawley rats; [5]) was 32.6±2.9%. For the same molecule, the “decrease in mean arterial pressure” value (Sprague Dawley rats; [5]) was 28.9±2.7%, the “decrease in systolic arterial pressure” value (Sprague Dawley rats; [5]) was 23.5±1.3% and the “expected effect on initiation of chronic renal failure (plasma BUN, Cr)” value (nephrectomized rats [1]) was “prevent, inhibit or delay the initiation of chronic renal failure”. The “expected treatment benefit to Nx rats (plasma BUN, Cr)” value (nephrectomized rats [2]) was “slow down chronic renal failure progression” and the “rank order potency of catecholamine metabolism” value [3] was “dopamine>epinephrine>norepinephrine”.
